The text below walks through data of PMC8086558, “Membrane Interactions of the Peroxisomal Proteins PEX5 and PEX14” (Frontiers in Cell and Developmental Biology, 2021).

Broadly, the stoichiometry N is a count of units in the complex or per binding partner. One may read the Kd as the constant that tells how readily two partners part at equilibrium. A lower Kd goes with a tighter complex.

First the molecules themselves.
B1: PEX5 NTD (residues 1–315) (domain or fragment)
chain: not shown
notes: human PEX5, N-terminal intrinsically disordered domain, residues 1-315, codon-optimised synthetic gene; harbours eight WF-like motifs (W0-W7); No primer pair is printed for the 1-315 construct; also called PEX5 (1–315); Pex5 (1–315); source: E. coli BL21 (DE3), purified (Ni-NTA under urea lysis, SEC Superdex S75), lyophilized; not shown: His6, N-terminal, kept
B2: PEX14 NTD (residues 1–104) (domain or fragment, human, UniProt O75381 1-104, looked up)
chain: MASSEQAEQPSQPSSTPGSENVLPREPLIATAVKFLQNSRVRQSPLATRRAFLKKKGLTDEEIDMAFQQSGTAADEPSSLGPATQVVPVQPPHLISQPYSPAGS
notes: human PEX14, N-terminal region up to the transmembrane span, residues 1-104, codon-optimised synthetic gene; holds the globular helical domain (residues 16-80); also called PEX14 (1–104); Pex14 (1–104); source: E. coli BL21 (DE3), purified (Ni-NTA, TEV cleavage, reverse Ni2+ column, SEC Superdex S75); not shown: His6, N-terminal, cleaved

Common to all, as to settings: both partners purified
Experiment [1] concerns the target B2. As to the kind of experiment: ITC; 50 uM PEX5 (1-315) injected into the cell with 30 uM PEX14 (1-104); 25 °C; 20 mM NaP pH 6.5, 100 mM NaCl, no bicelles; triplicates; one-site model, number of sites set to 1/8. On the technique in general: ITC needs no label: the signal is the heat of the interaction.
Experiment [2] deals with B2. Nature of the experiment: ITC; 50 uM PEX5 (1-315) injected into the cell with 30 uM PEX14 (1-104); 25 °C; 20 mM NaP pH 6.5, 100 mM NaCl with 44 uM DMPC/D7PC bicelles; triplicates; one-site model, number of sites set to 1/8.
For experiment [3], the target named is B1. As to the kind of experiment: ITC; 50 uM PEX5 (1-315) injected into the cell with 30 uM PEX14 (1-104); 25 °C; 20 mM NaP pH 6.5, 100 mM NaCl, no bicelles; triplicates; one-site model, number of sites set to 1/8.
The target of experiment [4] is B1. Nature of the experiment: ITC; 50 uM PEX5 (1-315) injected into the cell with 30 uM PEX14 (1-104); 25 °C; 20 mM NaP pH 6.5, 100 mM NaCl with 44 uM DMPC/D7PC bicelles; triplicates; one-site model, number of sites set to 1/8.

On to B1, for which, in experiment [1], the dH was -147 ± 7 kcal/mol and the “stoichiometry N” value was 0.125. In experiment [2], the dH is -92 ± 3 kcal/mol and the “stoichiometry N” value was 0.125.

Take B2: the figures for the equilibrium dissociation constant (Kd) in experiment [3] and in experiment [4] were 147 ± 16 nM and 260 ± 26 nM, respectively.
